Test: yeast display, Sf9 membrane polyspecificity reagent, FACS + sequencing; frameworks hold sequencing errors
Method in brief: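 Using colony PCR, genes from sorted yeast display clones were amplified, then sequenced on MiSeq at 2 × 250 and filtered by CDR length. The clones had been stained with 10% biotinylated, detergent-solubilized Sf9 membrane reagent for 1 hour at 4 °C and sorted by FACS into low and high (top ~1%) gates on anti-HA and streptavidin fluorescence. Polyreactivity labels come from the gate of origin.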

Sequence | polyreactivity (PSR sort gate)
QVQLVESGGGLVQAGGSLRLSCAASGLTSVRNAMGWYRQAPGKERELVAGISWSGGRTYYADSVKGRFTISRDNAKNTVYLQMNSLKPEDTAVYYCNKVRAYYTQEGSWGQGTQVTVSS | high polyreactivity
QVQLVESVGGLVQAGGSLRLSCAASGFTFYGYAMGWYRQAPGKERELVAAITSGGITNYADSVKGRFTISRDNAKNTVYLQMNSLKPEDTAVYYCNVKRRVSGYYGYKYYYWGQGTQVTVSS | high polyreactivity
QVQLVESGGGLVQAGGSLRLSCAASGFIVASNAMGGDRQAPGKVRELLAAINSSAGSTYYADSVKGRFTISRDNAKNTVYLQMNSQKPEDTAVYYCNRDDGSVYRRHRRPYYYWGQRTQVTVSS | low polyreactivity
QVQLVESGGGLVQAGGSLRLSCAASGSTLVIYAMGWYRQAPGKERELVAAINFSDGSTSYADSVKGRFTISRDNSKTTVYFQMNSLKPEDTAVYYWGQGTQVTVSS | low polyreactivity
QVQLVESGGGLVQAGGSLRLSCAASGSIFPIYAMGRYRQAPGKERELVAAIDSSGGSTYYADSVKGRFTISRDNAKNTVYLQMNSLKPEDTAVYYCAADFGSKSTPYDYWGQGTQVTVSS | low polyreactivity
QVQLVESGGALVQAGGSLRLSCAASGRIFGGYAMGWYRQAPGTERELVAAISSGGRTYYADSVKGRFTISRDNAKNTVYLQMNSLKPEDTAVYYCNAYTRGFRLGYWGQGTQVTVSS | high polyreactivity
QVQLVESGGGLVQAGGSLRLSCAASGRTFFKYVKGWYRQAPGKERELVAAISSGGSTNYADSVKGRFTISRDNAKNTVYLQMNSVKPEDTAVYSCAASRYRGYYYWGQGTQVTVSS | high polyreactivity
QVQLVDSGGGLVQAGGSLRLSCAASGRTFAWNAMGWYRQAPGKERELVAVITSGGSTNYADSVKGRFTISRDNAKNTVYLQMNSLKPEDTAVYYCATGDGPSLFDYWGQGTQVTVSS | low polyreactivity
QVQLQESGVRMVQAGGSLRLSCAASGNIFLGDTMGWYRQAPGKEREFVAGIARGGNPYYADSEKGRLTISRNNANNTVYLEKISLKPEDSAVHYCSVQRSDASDYNYWGQGTQVTVIS | low polyreactivity
QVQLVESGGGLVQAGGSLRLSCAASGRIFGSYAMGWYRQAPGKERELVAAITRSGGSTYYADSVKGRFTISRDNAKNTVYLQMNSLKPEDTAVYYCAARYGIRYAYFGRFDYWGQGTQVTVSS | high polyreactivity
QVQLVESGGGLVQAGGSLRLSCAASGSTFFLYAMGWYRQAPGKERELVASITDGGSTNYADSVKGRFTISRDNAKNTVYLQMNSLKPEDTAVYYCNALARSSRYDYWGQGTQVTVSS | low polyreactivity
QVQLVESGGGLVQAGGSLRLSCAASGRTFPSYAMGWYRQAPGKERELVAAISSRGSRTYYADSVKGRFTISRDNAKNTVYLQMNSLKPEDTAVYYCAAKNLWTRKSRYDYWGQGTQVTVSS | high polyreactivity
QVQLVESGGGLVQAGGSLRLSCAASGRIFRYYAMGWYRPAPGKERELVAGISSRGGSTYYADSVKGRFTISRDNAKNTVYLQMNSLKPEDTAVYYCAASPFHTVTPYGVVGRYDYWGQGTQVTVSS | high polyreactivity
QVQLVESGGGLVQAGGSLRLSCAASGIIFTYYAMGWYRQAPGKEREIVAAISWSGGNTYYADSVKGRFTISRDHAKNTVYLQMNSLKPEDTAVYYCARVQYWFYKPMYYWGQGTQVTVSS | high polyreactivity
QVQLVESGGGLVQAGGSLRLSCAASGIIFAKYAMGWYRQAPGKERELVAGISRSGGRTYYADSVKGRFTISRDNAKNTVYLQMNSLKPEDTAVYYCAAVPHGTGGWWKYDYWGQGTQVTVSS | high polyreactivity
QVQLVESVGGLVQGGGSLRLSCAASGINFYRYALGWYRQAPGKERELVAAINRSGDSTYYADSVKGRFTISRDNAKNTVYLQMNSLKPEDTAVYSCAAQHSIYRNPGLDDYWGQGNQVTVSS | high polyreactivity
QVQLEESGGGLVQAGGSLRLSCAASGRTSYSNAMGSYRQAPGQERELVAGITYRGGSTYYADSVKGRFTISRDNAKNTVYLQMNSLKPEDTAVYDCAVKYSWQSRFNYWGQGTQVTVSS | high polyreactivity
QVQLVESGGGLVQAGGSLRLSCPASGFNFPYYAKGWYRQAPGKEREFVAAISSGGNTNYADSVKGRFTISRDNAKNTVYLQMNSLKPEDTAVFYCAAGFLRYLNWSVKYDYWGQGTQVTVSS | low polyreactivity
QVQLVESGGGLVQAGGSHRLSCAASGRTFCKYAMGWYRQAPGKERELVAAITAGGGTKYADSVKGRFTISRDNAKNTVYLQMNSLKPEDTAVYYCAAASGSRRHGYWGQGTQVTVSS | high polyreactivity
QVQLVESGGGLVQAGGSLRLSCAASGSTLGYYAMGWYRQAPGKERELVAAIRYSDGNTYYADSVKGRFTISRDNAKNTVYLQMNSLKPEDTAVYYCAARRGRSFRGVFYPFEYWGQGTQVTVSS | high polyreactivity
QVQLVESGGGLVQAGGSLRLSCSASGFTFSWYAMGWYRQAPGKDRELVAAINADGGTTYYADSVKGRFTISRDNAKNTVYLQMNSLKPEDTAVYYCADELSVDKYDYWGQGTQVTVSS | low polyreactivity
QVQLVESGGGLVQAGGSLRLSCAASGRTFTRYTSGSYRPAPGKERELVAAIRYSGGSTYYADSVKGRFTISGDNAKNTVYLQMNSLKPEDTAVYYCAARSYYYGFLYRYDYWGQGTQVTVSS | low polyreactivity

Sequence | polyreactivity (PSR sort gate)
QVQLVESGGGLVQAGGSLRLSCAASGRTFPLYAMGWYRQAPGKERELVASITSDSSTYYADSVKGRFTISRDNAKNTVYLQMNSLKPEDTAVYYCAATTIPYPYTEFDYWGQGTQVTVSS | low polyreactivity
QVQLVESGGGLVQAGGSLSLSCPASGFTFPPYTMGWSRQAPGKEREFVATITKSGGSTYYADSVKGRFTISRDNAKNTVYLQMNSLKPEDTAVYYCNVVWQYSTYVRYNYWGQGTQVTVSS | low polyreactivity
QVQLVESGGGLVQAGGSLRLSCAASGSTSDINAMGWYRQAPGKERELVAVITFSGGSTNYADSVKGRFTISRDNAKNTVYLQMNSLKPEDTAVYYCSTSGQLYYSRNFDYWGQGTQVTVSS | low polyreactivity
QVQLVESGGGLVQAGGSLRLTSAASGSIFRYYTMGWYRHAPRKERELVAAISRNGGSTYYADSVKGRFTISRDNAKNSVYLQMNSLKPVDTAVYYCNADGGDWFGYVGMDYWGQGTQVTVSS | high polyreactivity
QVQLVESGGGLFQAGGSLRLSCAASGRTFYKYAMGWYRQAPGKERELVATITSGGSTNYADSVKGRFTISRDNAKNTVYLQLNCLKPEETAVYYFAARGHIYKIRDPYWTHDFWGQGTQVTVSS | low polyreactivity
QVQHVESGGGLVQAGGSLRLSSAAYGFIFGYYTMGWYRQAPGKERELVAAITSGDSTNYADSVKGRFTISRDNAKNTVYLQMNSLKPEDTAVYYCNARGLFTWMDYWGQGTQVTVSS | low polyreactivity
QVQLVESGGGLVQAGGSLRLSCAASGRIFRDNAMGWYRQAPGKEREFVARITISTGTTYYADSVKGRFTISRDNAKNTVYLQMNSLKPEDTAVYYCAALYTVSYLTSPVSYRYDYWGQGTQVTVSS | low polyreactivity
QVQLVESGGGLVQAGGSLRLNCAASGLIFSNNAMGWYRQAHRKERDLVAAITSSGSRTYYADSVKGRFTISRDNAQITVYLQMNSLKPEDTAVYYCAAYEVPYQRRYGYWGQGTQVTVSS | high polyreactivity
QVQLVESGGGLVQAGGSLRLSCAASGGTIFAYAMGWYIQAPRERELVPAISWSGDSTYYADSLKGRFTISRDNAKNTVYLQMNSLKPEETAVYYCAADYGFEFYYWGQGTQVTVAS | high polyreactivity
QVQLVESGGGLVQAGGSLRLSCAASGFIFYYNAMGWYRQAPGKERELVASISFSGGSTYYADSVKGRFTISRDNAKNTVYLQKNSLKPEDTAVYYCAARYPGGRPWPRYYYWGQGNQVTVSS | high polyreactivity
QVQLVESGGGLVQAGGSLRLSCAASGSIFADNTMGWSRQAPGKERELVAAITSSGRTYYADSVTGRFTISRDNAKNTVYLQMKSLKPEDTAVYYCAAVIYFHDYSPYYYWGQGTQVTVSS | high polyreactivity
QVQLVESGGGLVQAGGSLRLSCAASGFIFYYNVMGWYRQAPGKERELVAAIRYRGTITYYADSVKGRFTISRDNAKNTVYLQMNSLKPEDTAVYYCARRQRNYYRSSPGGDYWGQGTQVTVSS | low polyreactivity
QVQLVESGGGLVQAGGSLRLSCAASGITFSVYTMGWYRQAPGKERELVAAIDSDGITNYADSVKGRFTISRDNAKNTVYLQMNSLKPEDTAVYYCAKQSGRADGVSGFDYWGQGTQVTVSS | low polyreactivity
QVHLVESGGGLVQAGGSLRLSCAPSGRTFEQNAMGWYRQAPGKERELVASITSVGSTDYADSVKGRFTISRDNAKNTVYLQMNSLKPEDTAVYYCAKTLGSQKYDFDYWGQGTQVTVSS | low polyreactivity
QVQLVESGGGLVQAGGSLRLSCAASGSTFRRNAMGWYRQAPGKERELVAAITRRGTSTYYADSVKGRFTISRDNAKNTVYLQMNSLKPEDTAVYYCNAPRPYQDGKFGYWGQGTQVTVSS | high polyreactivity
QVQLVESGGGLVQAGGSLRLSCAASGSTFWANAMGWYRQAPGKERELVAGITWNAGSTYYADSVKGRFTISRDYAKNNVYFQMNSLNPEDTAVDYCAAYYHFQGWGPGYNSWGQGTQVTVSS | low polyreactivity
QVQLVESGGGLVQAGGSLRLSCAASGRIFLTNAMGWYRQAPGKERELVADITSGGATYYADSVKGRFTISRDNAKNSVYLQMNSLKPVDTAVYYCNADTDRYWPYEYDYWGQGSQVTVSS | low polyreactivity
QVQLVESGGGLVQAGGSLRLSCAASGNIFSDYAMGSYRQAPGKERELVAAISSGGNTNYADSVKGRFSISRDNAKKTVYLQMNSLKPEDTAVYYCAAFYNTTYTLLPAYSDVNYYYWGQGTQVTVSS | low polyreactivity
QVQLVESGGGLVQAGGSLRLSCAASGRIFAAYAMGWYRQAPGKERELVAAITRRGSTYYADSVKGRFTISRDNDKKTVYFQMNSLKPEDTAVYYCNKVPLFQYSTAWYDYWGQGTQVTVSS | high polyreactivity
QVQLQESGGGQVQAGGSLRLSCAASGTISPLPAMGWYRQAPGKEREFVAGIDTGAITNYADSVKGRFTISRDNAKNTVYLQMISLKPEDTAVYYCAVFPAAYDYYERYYTYWGQGTQVYVSS | low polyreactivity
QVQLEESGAGLVQAGGSLRLSCAASGSIFNLYAMGWYRQAPGKEMELVAAINWSGGSTYYADSVKGRFTISRDNAKNTVYLQMNSLKPEDTAVYYCAADAYSTYYGYEGDYWGQGTQVTVSS | low polyreactivity
